The values below are quoted from earlier work in article PMC9902533.

The series has as its target Immunoglobulin E kappa (recombinant, clone AbD18705_hIgE, HCA190) (human) (UniProt P01854+P01834). Particulars: 10 mM HEPES pH 7.4, 0.05% Tween-20, room temperature (IgE; fibrils and exosomes same buffer); FUS: 50 mM Tris-HCl pH 7.4, 25 mM KCl, 0.02% Tween-20, on-chip ….

Sequence of Immunoglobulin E kappa (recombinant, clone AbD18705_hIgE, HCA190) (human) (P01854 whole entry, chain 1 of 2, other chains not shown): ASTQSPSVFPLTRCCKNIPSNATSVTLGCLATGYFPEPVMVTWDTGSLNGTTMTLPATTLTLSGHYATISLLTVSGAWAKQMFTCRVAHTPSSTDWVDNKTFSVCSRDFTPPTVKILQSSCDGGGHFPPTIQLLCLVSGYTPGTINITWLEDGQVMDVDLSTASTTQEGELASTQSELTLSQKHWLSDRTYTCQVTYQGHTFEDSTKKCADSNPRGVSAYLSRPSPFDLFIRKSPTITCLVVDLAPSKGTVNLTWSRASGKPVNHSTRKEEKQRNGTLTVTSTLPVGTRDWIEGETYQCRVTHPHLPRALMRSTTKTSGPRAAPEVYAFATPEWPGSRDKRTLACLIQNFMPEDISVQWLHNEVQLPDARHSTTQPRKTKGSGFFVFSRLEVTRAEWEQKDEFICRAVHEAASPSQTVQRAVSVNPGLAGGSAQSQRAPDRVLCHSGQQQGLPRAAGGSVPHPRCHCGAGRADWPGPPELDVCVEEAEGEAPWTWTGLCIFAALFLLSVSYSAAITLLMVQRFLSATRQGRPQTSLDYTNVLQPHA

By Kd is commonly meant the concentration at which binding is half-saturated. “TGGGGCACGTTTATCCGTCCCTCCTAGTGGCGTGCCCC [IgE aptamer]”: the Kd is 50 nM.
